“Also recorded” adds a separate entry of the source. Like-named read-outs stand apart in the source and are kept apart here. Square brackets hold non-standard residues; d marks the D form. Peptide text beside a SMILES is read from it.
Legend:
PrP = PrP (Mus musculus, UniProt P04925); design: species or system 129 SvEv mice; conditions: in vivo
PrP^Sc in ScN2a cells [1] = test system: PrP^Sc in ScN2a cells
ScN2a cells = format: cell-based, murine
recombinant mouse PrP [2] = molecular target: T1, recombinant mouse PrP (Mus musculus, UniProt P04925); test: biochemical; format: binding
PrP^C and PrP^Sc = PrP^C and PrP^Sc (Mus musculus, UniProt P04925); format: binding
recombinant mouse PrP [3] = molecular target: T1, recombinant mouse PrP; format: binding
Target sequence in this assay (P04925 23-230 limits assumed): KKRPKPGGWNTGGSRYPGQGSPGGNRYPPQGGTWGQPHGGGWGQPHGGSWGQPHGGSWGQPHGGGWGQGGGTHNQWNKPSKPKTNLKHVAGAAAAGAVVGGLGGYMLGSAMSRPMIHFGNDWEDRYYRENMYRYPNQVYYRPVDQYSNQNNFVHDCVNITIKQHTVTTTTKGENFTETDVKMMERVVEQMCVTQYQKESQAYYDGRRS

scrapie (RML) prions [4] = test system: scrapie (RML) prions; design: species or system CD1 mice; conditions: in vivo
scrapie (RML) prions [5] = test system: scrapie (RML) prions; design: species or system C57/B6 mice; conditions: mouse, in vivo, ip
[6] = test system: prions in treated ScN2a cells; design: species or system tg20 mice; conditions: mouse, in vivo
PrP^Sc in ScN2a cells [7] = test system: PrP^Sc in ScN2a cells; remark: listed apart in the source
[8] = test system: MBPAc1-11 T cell receptor transgenic CD4+ T cells; format: cell-based, mouse
recombinant mouse PrP [9] = molecular target: T1, recombinant mouse PrP
[10] = molecular target: sheep PrP^C and sheep prions (Ovis aries, UniProt P23907)

Sequence of PrP (P04925 23-230 limits assumed): as above

In the case of `CSCC[C@@H](NC(=O)[C@@H](CC(=O)O)NC(=O)[C@@H](Cc1ccc(O)cc1)NC(=O)[C@@H](Cc1c[nH]c2ccccc12)NC(=O)CN)C(=O)N[C@H](C)C(=O)N[C@H](CC(=O)O)C(=O)N[C@H](CCCNC(=N)N)C(=O)N[C@H](CCC(=O)O)C(=O)N[C@H](Cc1c[nH]c2ccccc12)C(=O)N[C@H](CC(N)=O)C(=O)N[C@H](Cc1c[nH]c2ccccc12)C(=O)N[C@H](CCCNC(=N)N)C(=O)N[C@H](C)C(=O)N[C@H](CS)C(=O)N[C@H](Cc1ccccc1)C(=O)N[C@H](Cc1ccc(O)cc1)C(=O)O` [(D-)riCDR3H, gwydmadrewnwracfy] (H-G[dW][dY][dD][dM][dA][dD][dR][dE][dW][dN][dW][dR][dA][dC][dF][dY]-OH), the “overcoming self tolerance of humoral immune response against PrP” value (PrP) is reported as “able to overcome self tolerance of humoral immune response against PrP”, the “antiprion activity (prion clearing) of fragments” value (PrP^Sc in ScN2a cells [1]) is reported as “reinstated antiprion activity” and the “concentration at which antiprion activity was exhibited” value (PrP^Sc in ScN2a cells [1]) is reported as 4 µM. The “competition of staining by scFvW226” value (ScN2a cells) was “could be competed by scFvW226”, the “staining pattern of live ScN2a cells” value (ScN2a cells) was “staining all over the cell” and the Kd (recombinant mouse PrP [2]) was 1 to 10 µM. For the same molecule, the “PrP conformer recognized by immunoprecipitation / pull-down” value (PrP^C and PrP^Sc) was “pulled down only PrP^Sc in a conformation-specific manner; also recorded: pulled down only PrP from scrapie-infected homogenates”.

For H-YFCARWNWERDAMDYWG-OH [CDR3H], the “clones that only recognized the immunogen” value (PrP) was 8, the “hybridoma secreting mABs recognizing both the immunogen and mouse PrP” value (PrP) was 28 and the “binding by enzyme-linked immunosorbent assay” value (recombinant mouse PrP [3]) was “weak binding to recombinant mouse PrP”. For the same molecule, the “competition of staining by scFvW226” value (ScN2a cells) was “could be competed by scFvW226”, the “digestion by trypsin / protease resistance” value (ScN2a cells) was “could be digested by trypsin” and the “staining pattern of live ScN2a cells” value (ScN2a cells) was “stained only intracellular compartments”. For the same molecule, the “survival of the one surviving immunized mouse” value (scrapie (RML) prions [4]; ip) was greater than 10 months, the “protection from prion disease” value (scrapie (RML) prions [4]; mouse) was “able to protect from prion disease” and the “average incubation time of the four immunized mice that died” value (scrapie (RML) prions [4]; mouse, ip) was 205 days. The “PrP conformer recognized by immunoprecipitation / pull-down” value (PrP^C and PrP^Sc) was “conformation-specific recognition of only PrP^Sc; also recorded: pulled down only PrP^Sc in a conformation-specific manner; also recorded: pulled down only PrP from scrapie-infected homogenates”.

B1: scFvW226: scFv: variable heavy and light chain domains of W226 connected by (Gly4Ser)3-linker, C-terminal myc- and his6-tags; SEQ ID NO:6 (protein)
scFv: MKYLLPTAAAGLLLLAAQPAMAMAEVQLQQSGAELARPGTSVNLSCKTSGYSFTGYGVSWVKQRIGQGLEWIGEIYPRSGNTYYNEKFKGKATLTADKSSNTAYMELRSLTSEDSAVYFCARWNWERDAMDYWGQGTSVTVSSAKTTPPSDYPLAGGGGSGGGGSGGGGSDIVMTQTPLSLPVSLGDQASISCRSSQSLESSSGYPHLNWYLQKPGQSPQLLIYRVSNRFSGVLDRFSGSGSGTDFTLQISRVEAEDLGVYFCLQITHVPWTFGGGTKLEIKRADAAPTVSAAEEQKLISEEDLEHHHHHH
modifications: C-terminal myc and His6 tags; scFv
B1 was tested, and the survival time (scrapie (RML) prions [5]) was “significant effect on increasing the survival time”, the weight loss (scrapie (RML) prions [5]) was “none of the treated mice experienced any weight loss” and the “number of sick n/n0” value [6] was 0/5. For the same molecule, the “antiprion effect after transfection into ScN2a cells” value (PrP^Sc in ScN2a cells [7]) was “clear time-dependent antiprion effect”, the “antiprion effect of conditioned medium of transfected N2a cells” value (PrP^Sc in ScN2a cells [7]) was “prions were cleared” and the antiprion activity (PrP^Sc in ScN2a cells [1]) was “antiprion active”. The “concentrations with prion-clearing effects” value (PrP^Sc in ScN2a cells [1]) was greater than 3.2 nM, the “minimal / smallest effective concentration clearing prions” value (PrP^Sc in ScN2a cells [1]) was 4 nM and the T cell proliferation [8] was “augmented proliferation of Ag-specific T cells; also recorded: increased T cell proliferation”. The “binding activity to recombinant mouse PrP after heat incubation” value (recombinant mouse PrP [9]) was “retained binding activity”, the “binding activity to recombinant mouse PrP after serum incubation” value (recombinant mouse PrP [9]) was “retained binding activity” and the “PrP conformer recognized by immunoprecipitation / pull-down” value (PrP^C and PrP^Sc) was “recognizes both PrP^C and PrP^Sc; also recorded: could precipitate both PrP^C and PrP^Sc; also recorded: immunoprecipitated both PrP^C and PrP^Sc”.

B2: mAB W226 (antibody, V domains shown)
VH: EVQLQQSGAELARPGTSVNLSCKTSGYSFTGYGVSWVKQRIGQGLEWIGEIYPRSGNTYYNEKFKGKATLTADKSSNTAYMELRSLTSEDSAVYFCARWNWERDAMDYWGQGTSVTVSSAKTTPPSDYPLA
VL: DIVMTQTPLSLPVSLGDQASISCRSSQSLESSSGYPHLNWYLQKPGQSPQLLIYRVSNRFSGVLDRFSGSGSGTDFTLQISRVEAEDLGVYFCLQITHVPWTFGGGTKLEIKRADAAPTVSAA
With B2 the survival time (scrapie (RML) prions [5]) was “significant effect on increasing the survival time”, the weight loss (scrapie (RML) prions [5]) was “none of the treated mice experienced any weight loss” and the T cell proliferation [8] was “augmented proliferation of Ag-specific T cells; also recorded: increased T cell proliferation”. The Kd (recombinant mouse PrP [2]; read-out: KD) was 0.0005 µM, the “PrP conformer recognized by immunoprecipitation / pull-down” value (PrP^C and PrP^Sc) was “pulls down readily PrP^C from mouse brain homogenates; also recorded: binding to both PrP^C and PrP^Sc was detected” and the “binding of PrP^C from normal sheep homogenate” value [10] was “weak binding of PrP^C from normal sheep homogenate”.
